These results are taken from publication PMC8287531 (2021).

Where no end group is shown, it is not given here.

This assay addresses T1, talin R7R8 rod domains (UniProt Q9Y490 1359-1659).
T1 chain: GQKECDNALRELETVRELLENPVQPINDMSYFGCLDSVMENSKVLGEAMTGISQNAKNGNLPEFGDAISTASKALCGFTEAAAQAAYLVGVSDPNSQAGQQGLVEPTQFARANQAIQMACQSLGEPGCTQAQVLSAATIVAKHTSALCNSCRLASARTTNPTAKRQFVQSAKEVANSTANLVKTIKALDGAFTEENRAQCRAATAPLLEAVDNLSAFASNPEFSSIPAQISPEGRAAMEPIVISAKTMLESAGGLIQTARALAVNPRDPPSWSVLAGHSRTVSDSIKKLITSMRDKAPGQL
Description: FP.

A word on the Kd: it is the concentration at which binding is half-saturated. For SEDIDQMFSTLLGEMDLLTQSLGVDTC (also: fluorescein-labeled, position not given here) [RIAM(4-30) peptide, fluorescein-labeled], binding was characterised by a dissociation constant (Kd) of 3.6 µM. This counts as single-digit micromolar.
